From patent publication US20220213227A1 (published 2022)
Changes are numbered by the printed parent chain.

Key:
human OX40 on cells = target: T1, human OX40 on cells (human, UniProt P43489 29-277); assay: cell-based or functional assay
T1 sequence (looked up): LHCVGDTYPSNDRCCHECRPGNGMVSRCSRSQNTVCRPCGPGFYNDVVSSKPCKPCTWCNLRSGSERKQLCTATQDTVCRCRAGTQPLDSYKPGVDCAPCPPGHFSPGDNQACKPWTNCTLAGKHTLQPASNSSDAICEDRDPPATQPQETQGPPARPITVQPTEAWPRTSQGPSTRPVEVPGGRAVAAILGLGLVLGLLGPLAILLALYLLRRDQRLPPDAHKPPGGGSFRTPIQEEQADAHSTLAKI

human HER2 on cells = human HER2 on cells (human, UniProt P04626 23-1255); assay: cell-based or functional assay
[1] = target: T2, human CD3 gamma-epsilon-Fc fusion protein (human); assay: SPR using the human CD3gamma-epsilon-Fc construct
T2 construct: also called CD3 gamma-epsilon-Fc protein; human CD3gamma-epsilon-Fc construct

human CD20 on cells = target: T3, human CD20 on cells (human, UniProt P11836 1-297); assay: cell-based or functional assay
T3 sequence (looked up): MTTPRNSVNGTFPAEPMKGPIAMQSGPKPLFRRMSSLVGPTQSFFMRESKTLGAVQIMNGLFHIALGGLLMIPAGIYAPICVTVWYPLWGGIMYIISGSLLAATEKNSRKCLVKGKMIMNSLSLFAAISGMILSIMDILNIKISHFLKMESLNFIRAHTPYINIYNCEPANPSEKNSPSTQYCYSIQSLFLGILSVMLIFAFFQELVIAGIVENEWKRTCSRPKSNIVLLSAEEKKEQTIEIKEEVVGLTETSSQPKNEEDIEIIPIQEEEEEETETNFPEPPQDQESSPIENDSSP

human EGFR on cells [2] = target: T4, human EGFR on cells (human, UniProt P00533 25-1210); assay: cell-based or functional assay
human EGFR on cells [3] = target: T4, human EGFR on cells; assay: cell-based or functional assay; remark: listed apart in the source
[4] = target: soluble extracellular region of cynomolgus monkey CD38 antigen fused to a 6-His-tag (cynomolgus monkey, UniProt Q5VAN0 45-301); assay: SPR
[5] = target: T5, soluble extracellular region of human CD38 fused to a 6-His-tag (human, UniProt P28907 43-300); assay: SPR, antibody captured on protein G chip, equilibrium response vs concentration
T5 construct: Extracellular region = UniProt P28907 residues 43-300, with a 6-His-tag at the C-terminal end; also called human CD38 protein; human CD38 antigen

B1: BEAT OX40/CD3 antibody (bispecific antibody, human IgG1, kappa, L234A L235A)
heavy: QVTLKESGPALVKPTQTLTLTCSFSGFSLSTSGMGVGWIRQPPGKALEWIAHIWWDDDKYYNTALKTRLTISKDTSKNQVVLTMTNMDPVDTATYYCARIDWDGFAYWGQGTLVTVSSASTKGPSVFPLAPSSKSTSGGTAALGCLVKDYFPEPVTVSWNSGALTSGVHTFPAVLQSSGLYSLSSVVTVPSSSLGTQTYICNVNHKPSNTKVDKKVEPKSCDKTHTCPPCPAPEAAGGPSVFLFPPKPKDTLMISRTPEVTCVVVDVSHEDPEVKFNWYVDGVEVHNAKTKPREEQYNSTYRVVSVLTVLHQDWLNGKEYKCKVSNKALPAPIEKTISKAKGQPREPAVYTLPPSRDELTKNQVKLVCLVTGFYPSDIAVEWESNGQPENNYYTTPPVLDSDGSFSLVSWLNVDKSRWQQGNVFSCSVMHEALHNHYTQKSLSLSPGK
light: EIVLTQSPATLSLSPGERATLSCRASSSVSYMHWYQQKPGQAPRPWIYATSNRATGIPARFSGSGSGTDYTLTISSLEPEDFAVYYCQQWSSNPWTFGQGTKVEIKRTVAAPSVFIFPPSDEQLKSGTASVVCLLNNFYPREAKVQWKVDNALQSGNSQESVTEQDSKDSTYSLSSTLTLSKADYEKHKVYACEVTHQGLSSPVTKSFNRGEC
chain: EVQLVESGGGLVQPGGSLRLSCAASGYTFTRYTMHWVRQAPGKGLEWIGYINPSRGYTYYADSVKGRFTLSTDKSKNTAYLQMSSLRAEDTAVYYCARYYDDHYCLDYWGQGTLVTVSSGGGGSGGGGSGGGGSGGGASDIQLTQSPSSLSASVGDRVTITCRASSSVSYVAWYQQKPGKAPKRWIYDTSKLYSGVPSRFSGSGSGTDYTLTISSLQPEDFATYYCQQWSSNPPTFGQGTKVEIKGGGGTDKTHTCPPCPAPEAAGGPSVFLFPPKPKDTLMISRTPEVTCVVVDVSHEDPEVQFKWYVDGVEVHNAKTKPREEQYNSTFRVVSVLTVLHQDWLNGKEYKCKVSNKALPAPIEKTISKTKGQPREPEVATFPPSREEMTKNQVTLVCLVTGFYPSDIAVEWESSGQPENNYNTDPPLLESDGSFALSSRLRVDKSRWQQGNIFSCSVMHEALHNRFTQKSLSLSPGK
- EC50 of T cell redirected killing of stable recombinant CHO[OX40] cells (RDL-MTS) (human OX40 on cells): 0.5 nM

B2: BEAT HER2/CD3-2 antibody (bispecific antibody, human IgG1, kappa, L234A L235A)
heavy: not shown
light: not shown
chain: B1 chain
- EC50 of T cell redirected killing of BT-474 cells (RDL-MTS) (human HER2 on cells): 0.002 nM
- EC50 of T cell redirected killing of JIMT-1 cells (RDL-MTS) (human HER2 on cells): 0.016 nM
- EC50 of T cell redirected killing of MDA-MB-231 cells (RDL-MTS) (human HER2 on cells): ~0.2 nM
- binding result [1]: binds

B3: BEAT CD20/CD3 (SP34) antibody (bispecific antibody)
heavy: QVQLQQPGAELVKPGASVKMSCKASGYTFTSYNMHWVKQTPGRGLEWIGAIYPGNGDTSYNQKFKGKATLTADKSSSTAYMQLSSLTSEDSAVYYCARSTYYGGDWYFNVWGAGTTVTVSAASTKGPSVFPLAPSSKSTSGGTAALGCLVKDYFPEPVTVSWNSGALTSGVHTFPAVLQSSGLYSLSSVVTVPSSSLGTQTYICNVNHKPSNTKVDKKVEPKSCDKTHTCPPCPAPEAAGGPSVFLFPPKPKDTLMISRTPEVTCVVVDVSHEDPEVQFKWYVDGVEVHNAKTKPREEQYNSTFRVVSVLTVLHQDWLNGKEYKCKVSNKALPAPIEKTISKTKGQPREPAVYTLPPSREEMTKNQVKLVCLVTGFYPSDIAVEWESSGQPENNYYTTPPMLDSDGSFSLVSWLNVDKSRWQQGNIFSCSVMHEALHNRFTQKSLSLSPGK
light: QIVLSQSPAILSASPGEKVTMETTCRASSSVSYIHWFQQKPGSSPKPWIYATSNLASGVPVRFSGSGSGTSYSLTISRVEAEDAATYYCQQWTSNPPTFGGGTKLEIKRTVAAPSVFIFPPSDEQLKSGTASVVCLLNNFYPREAKVQWKVDNALQSGNSQESVTEQDSKDSTYSLSSTLTLSKADYEKHKVYACEVTHQGLSSPVTKSFNRGEC
chain: not shown
- EC50 of T cell redirected killing of Daudi cells (RDL-FACS) (human CD20 on cells): 0.025 nM

B4: BEAT HER2/CD3-1 antibody (bispecific antibody, human IgG1, kappa, L234A L235A)
heavy: EVQLVESGGGLVQPGGSLRLSCAASGYTFTRYTMHWVRQAPGKGLEWIGYINPSRGYTYYADSVKGRFTLSTDKSKNTAYLQMSSLRAEDTAVYYCARYYDDHYCLDYWGQGTLVTVSSASTKGPSVFPLAPSSKSTSGGTAALGCLVKDYFPEPVTVSWNSGALTSGVHTFPAVLQSSGLYSLSSVVTVPSSSLGTQTYICNVNHKPSNTKVDKKVEPKSCDKTHTCPPCPAPEAAGGPSVFLFPPKPKDTLMISRTPEVTCVVVDVSHEDPEVQFKWYVDGVEVHNAKTKPREEQYNSTFRVVSVLTVLHQDWLNGKEYKCKVSNKALPAPIEKTISKTKGQPREPAVYTLPPSREEMTKNQVKLVCLVTGFYPSDIAVEWESSGQPENNYYTTPPMLDSDGSFSLVSWLNVDKSRWQQGNIFSCSVMHEALHNRFTQKSLSLSPGK
light: DIQLTQSPSSLSASVGDRVTITCRASSSVSYVAWYQQKPGKAPKRWIYDTSKLYSGVPSRFSGSGSGTDYTLTISSLQPEDFATYYCQQWSSNPPTFGQGTKVEIKRTVAAPSVFIFPPSDEQLKSGTASVVCLLNNFYPREAKVQWKVDNALQSGNSQESVTEQDSKDSTYSLSSTLTLSKADYEKHKVYACEVTHQGLSSPVTKSFNRGEC
chain: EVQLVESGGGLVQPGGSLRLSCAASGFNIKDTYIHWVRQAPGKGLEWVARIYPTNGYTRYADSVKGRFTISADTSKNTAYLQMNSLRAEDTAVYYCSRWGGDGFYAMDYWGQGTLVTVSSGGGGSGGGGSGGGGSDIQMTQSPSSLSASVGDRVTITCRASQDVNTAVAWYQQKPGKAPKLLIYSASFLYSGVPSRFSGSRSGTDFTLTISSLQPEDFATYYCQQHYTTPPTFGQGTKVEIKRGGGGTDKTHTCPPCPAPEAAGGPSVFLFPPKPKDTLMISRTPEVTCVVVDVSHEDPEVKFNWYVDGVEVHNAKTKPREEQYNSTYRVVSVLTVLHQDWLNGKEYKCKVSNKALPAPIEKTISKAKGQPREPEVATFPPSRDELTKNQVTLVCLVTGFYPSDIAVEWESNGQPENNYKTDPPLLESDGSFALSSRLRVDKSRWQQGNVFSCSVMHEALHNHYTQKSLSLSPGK
notes: also called HER2/CD3-1 bispecific antibody
- EC50 of T cell redirected killing of BT-474 cells (RDL-MTS) (human HER2 on cells): 0.0006 nM
- EC50 of T cell redirected killing of JIMT-1 cells (RDL-FACS) (human HER2 on cells): 0.0014 nM
- EC50 of T cell redirected killing of JIMT-1 cells (RDL-MTS) (human HER2 on cells): 0.021 nM
- EC50 of T cell redirected killing of MDA-MB-231 cells (RDL-FACS) (human HER2 on cells): 0.08 nM
- EC50 of T cell redirected killing of MDA-MB-231 cells (RDL-MTS) (human HER2 on cells): ~0.2 nM
- binding result [1]: binds

B5: VECTIBIX (panitumumab)/hSP34 BEAT (bispecific antibody)
VH: QVQLQESGPGLVKPSETLSLTCTVSGGSVSSGDYYWTWIRQSPGKGLEWIGHIYYSGNTNYNPSLKSRLTISIDTSKTQFSLKLSSVTAADTAIYYCVRDRVTGAFDIWGQGTMVTVSS
VL: DIQMTQSPSSLSASVGDRVTITCQASQDISNYLNWYQQKPGKAPKLLIYDASNLETGVPSRFSGSGSGTDFTFTISSLQPEDIATYFCQHFDHLPLAFGGGTKVEIK
chain: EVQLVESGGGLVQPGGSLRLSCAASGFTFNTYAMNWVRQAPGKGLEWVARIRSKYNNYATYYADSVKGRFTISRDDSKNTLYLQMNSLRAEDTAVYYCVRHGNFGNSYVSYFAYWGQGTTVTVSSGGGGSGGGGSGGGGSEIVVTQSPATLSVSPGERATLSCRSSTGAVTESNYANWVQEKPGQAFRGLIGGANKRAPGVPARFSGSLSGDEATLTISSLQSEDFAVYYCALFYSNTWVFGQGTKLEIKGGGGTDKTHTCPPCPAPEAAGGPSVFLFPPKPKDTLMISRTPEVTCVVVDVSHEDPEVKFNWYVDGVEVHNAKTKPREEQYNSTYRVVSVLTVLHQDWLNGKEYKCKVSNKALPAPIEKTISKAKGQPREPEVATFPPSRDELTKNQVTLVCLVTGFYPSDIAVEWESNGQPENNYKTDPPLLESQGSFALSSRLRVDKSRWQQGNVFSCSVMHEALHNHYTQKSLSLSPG
- EC50 of redirected T-cell lysis of A549 cells (human EGFR on cells [2]): 0.000613 nM
- EC50 of redirected T-cell lysis of HCC827 cells (value of the text, differs from the table) (human EGFR on cells [2]): 0.000156 nM
- EC50 (X)/EC50 (HCC827), HCT116 cells (human EGFR on cells [3]): 2.3 ratio
- EC50 (X)/EC50 (HCC827), MCF7 cells (human EGFR on cells [3]): 4300 ratio
- EC50 (X)/EC50 (HCC827), SW480 cells (human EGFR on cells [3]): 47.9 ratio
- EC50 of redirected T-cell lysis of HCC827 cells (human EGFR on cells [3]): 0.000146 nM
- EC50 of redirected T-cell lysis of HCT116 cells (human EGFR on cells [3]): 0.000341 nM
- EC50 of redirected T-cell lysis of MCF7 cells (human EGFR on cells [3]): 0.627 nM
- EC50 of redirected T-cell lysis of SW480 cells (human EGFR on cells [3]): 0.00699 nM

B6: CD3/CD20 BEAT (SP34 scFv H5/L65 with Rituximab FAB arm) (bispecific antibody)
VH: EVQLVESGGGLVQPGGSLRLSCAASGYTFTSYNMSWVRQAPGKGLEWVSAIYPGNGDTYYADSVKGRFTISRDNSKNTLYLQMNSLRAEDTAVYYCARSTYYGGDWYFNVWGQGTLVTVSS
VL: B6 VH with V48I, S49G, F68A, I70L, R72A, N74K, L79A
chain: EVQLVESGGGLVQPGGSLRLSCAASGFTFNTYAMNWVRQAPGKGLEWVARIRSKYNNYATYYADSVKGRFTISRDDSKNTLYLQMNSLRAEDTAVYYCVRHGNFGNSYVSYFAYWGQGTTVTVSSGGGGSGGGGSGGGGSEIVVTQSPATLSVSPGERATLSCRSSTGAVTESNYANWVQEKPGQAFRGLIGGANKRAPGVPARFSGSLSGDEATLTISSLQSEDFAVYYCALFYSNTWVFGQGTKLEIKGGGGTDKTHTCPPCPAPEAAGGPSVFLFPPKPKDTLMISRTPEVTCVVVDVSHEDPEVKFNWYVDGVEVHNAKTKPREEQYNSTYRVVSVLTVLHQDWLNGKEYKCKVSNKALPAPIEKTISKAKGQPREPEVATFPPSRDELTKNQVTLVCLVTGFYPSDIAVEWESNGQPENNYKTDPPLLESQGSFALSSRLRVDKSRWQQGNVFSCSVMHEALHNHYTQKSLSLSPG
- EC50 of T cell redirected killing of Raji cells (RDL-FACS) (human CD20 on cells): 0.0376 nM

B7: human 767 antibody (antibody, human IgG1, kappa, V domains shown)
VH: QVQLVESGGGLVQPGGSLRLSCAASGFTFSSYWMSWVRQAPGKGLEWVANIKQDGSEKYYVDSVKGRFTISRDNAKNSLYLQMNSLRAEDTAVYYCAREGRTGYFDYWGQGTLVTVSS
VL: QSVLTQPPSASGTPGQRVTISCSGSTSNIGTNYVYWYQQLPGTAPKLLIYRNDQRPSGVPDRFSGSKSGTSASLAISGLRSEDEADYYCAAWDDSRSGVYAFGTGTKVTVLR
notes: Human IgG1; also called clone 767 IgG1 antibody
- Kd [4]: ~1200 nM
- Kd [5]: ~300 nM
